# According to patent US20240270826A1 (NATIONAL RESEARCH COUNCIL OF CANADA, published 2024):
# What was measured:
# [1] = molecular target: T1, SARS-CoV-2 S1-NTD (aa16-305) (SARS-CoV-2 Wuhan, UniProt P0DTC2 16-305); assay: ELISA, coated antigen
# [2] = molecular target: T2, SARS-CoV-2 S1 (aa16-685) (Wuhan) (SARS-CoV-2 Wuhan, UniProt P0DTC2 16-685); assay: ELISA, coated antigen, apparent EC50
# T2 construct: NRC; FLAG, 6xHis tags
# [3] = molecular target: T3, SARS-CoV-2 spike trimer S (Wuhan, SmT1) (SARS-CoV-2 Wuhan); assay: ELISA, coated antigen, apparent EC50
# T3 construct: extracellular domain
# [4] = molecular target: T2, SARS-CoV-2 S1 (aa16-685) (Wuhan); assay: SPR, antigen on chip
# [5] = molecular target: SARS-CoV-2 S1-RBD fused to human Fc (S1-RBD-Fc) (SARS-CoV-2 Wuhan; human); assay: SPR, antigen on chip
# [6] = molecular target: T3, SARS-CoV-2 spike trimer S (Wuhan, SmT1); assay: SPR, antigen on chip
# [7] = molecular target: T3, SARS-CoV-2 spike trimer S (Wuhan, SmT1); assay: flow cytometry, inhibition of S binding to ACE2 on Vero E6 cells, monomeric VHH
# [8] = molecular target: T2, SARS-CoV-2 S1 (aa16-685) (Wuhan); assay: SPR single-cycle kinetics, VHH over immobilized S1 [cont.]
# [9] = molecular target: Human SARS-CoV-2_Wuhan S (SmT1) (SARS-CoV-2 (Wuhan), UniProt P0DTC2 14-1208); assay: tandem SPR, immobilized S, orientation 1: VHH alone
# RBD (aa319-541) (Wuhan) [10] = molecular target: T4, RBD (aa319-541) (Wuhan) (SARS-CoV-2 (Wuhan), UniProt P0DTC2 319-541); assay: SPR, RBD over captured VHH-Fc (per Table 11 footnote)
# [11] = molecular target: T1, SARS-CoV-2 S1-NTD (aa16-305); assay: ELISA
# [12] = molecular target: T5, SARS-CoV-2 S2 (aa686-1208) (Wuhan) (SARS-CoV-2 Wuhan, UniProt P0DTC2 686-1208); assay: ELISA
# T5 construct: NRC; FLAG, 6xHis tags
# [13] = molecular target: T6, SARS-CoV-2 S on CHO-S cells (SARS-CoV-2, UniProt P0DTC2 14-1273); assay: flow cytometry, CHO-S cells
# T6 construct: whole, on cells
# RBD_SARS-CoV (aa306-527) = RBD_SARS-CoV (aa306-527) (SARS-CoV, UniProt P59594 306-527); assay: SPR, RBD over captured VHH-Fc
# RBD (aa319-541) (Wuhan) [14] = molecular target: T4, RBD (aa319-541) (Wuhan); assay: SPR, RBD over captured VHH-Fc
# [15] = molecular target: SARS-CoV-2 RBD (aa319-541) (Wuhan), monomeric (SARS-CoV-2 Wuhan, UniProt P0DTC2 319-541); assay: SPR, monomeric RBD over captured VHH-Fc
# [16] = molecular target: T5, SARS-CoV-2 S2 (aa686-1208) (Wuhan); assay: SPR; 'nd' read as spanning the three S1 columns, the dashes as the S2 block
# [17] = molecular target: T5, SARS-CoV-2 S2 (aa686-1208) (Wuhan); assay: SPR, antigen on chip
# [18] = molecular target: T5, SARS-CoV-2 S2 (aa686-1208) (Wuhan); assay: SPR single-cycle kinetics, VHH over immobilized S2 [cont.]
# SARS-CoV spike (S) = SARS-CoV spike (S) (SARS-CoV, UniProt P59594 14-1195); assay: ELISA
# [19] = molecular target: T7, ACE2-Fc (human ACE2 aa18-740 fused to human IgG1 Fc) (human, UniProt Q9BYF1 18-740); assay: ELISA
# T7 construct: range 18-740
# T7 sequence (Q9BYF1 18-740 limits assumed): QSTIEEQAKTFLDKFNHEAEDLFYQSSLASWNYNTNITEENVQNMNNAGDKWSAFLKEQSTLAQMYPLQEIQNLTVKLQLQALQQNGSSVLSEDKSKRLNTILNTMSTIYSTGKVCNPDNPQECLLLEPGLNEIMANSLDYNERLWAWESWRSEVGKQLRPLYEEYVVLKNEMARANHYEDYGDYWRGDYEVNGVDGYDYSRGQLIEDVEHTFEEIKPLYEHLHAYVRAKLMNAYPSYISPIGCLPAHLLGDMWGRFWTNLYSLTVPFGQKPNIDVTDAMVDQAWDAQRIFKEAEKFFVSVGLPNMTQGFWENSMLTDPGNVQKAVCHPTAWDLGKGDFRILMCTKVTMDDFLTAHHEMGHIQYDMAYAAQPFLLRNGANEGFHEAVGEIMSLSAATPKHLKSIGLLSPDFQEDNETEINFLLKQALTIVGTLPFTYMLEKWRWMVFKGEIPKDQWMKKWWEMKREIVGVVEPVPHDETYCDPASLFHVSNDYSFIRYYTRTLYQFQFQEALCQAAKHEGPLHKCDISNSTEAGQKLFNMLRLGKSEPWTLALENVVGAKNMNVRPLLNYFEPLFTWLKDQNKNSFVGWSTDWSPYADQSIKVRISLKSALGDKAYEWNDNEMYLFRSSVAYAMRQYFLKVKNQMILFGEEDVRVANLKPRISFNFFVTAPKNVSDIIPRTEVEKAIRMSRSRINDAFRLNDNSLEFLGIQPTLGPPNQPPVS
binder,measurement,setting,value
"NRCoV2-02 VHH-Fc (Fc fusion, bivalent) EVQLVESGGGLVQAGGSLRLSCAASGFTFSNYAMNWVRQAPGKGLEWVSGISGRGDDTRYADSVKGRFTISRDNAKNTLFLQMRSLRPEDTGVYRCTKGPDLYYFGSGYSDRGQGTQVTVSS",binding result,[1],no binding
same,EC50,[2],0.11 nM
same,EC50,[3],0.1 nM
NRCoV2-11 VHH (VHH) VHH: EVQLVSSGGGLVQPGGSLRLSCAASGSSLDSYSVSWFRQAPGKEREWISFISRYYSSTYYTDSVKGRFTTSRDGDQKTVHLQMNSLKPEDTAVYYCAARSRDFSSPFSATDTYTSWGQGTQVTVSS,Kd,[4],0.167 nM
same,koff,[4],0.00018 s⁻¹
same,kon,[4],1.08e+06 M⁻¹ s⁻¹
same,Kd,[5],0.253 nM
same,koff,[5],0.000226 s⁻¹
same,kon,[5],892000 M⁻¹ s⁻¹
same,Kd,[6],0.0391 nM
same,koff,[6],4.73e-05 s⁻¹
same,kon,[6],1.21e+06 M⁻¹ s⁻¹
same,IC50,[7],16.8 nM
NRCoV2-S2A4 VHH (VHH) VHH: QVQLVQSGGGLVQAGGSLRLSCAVSGSPFRSNVMEWYRQAPGKQRELVASISTGGSRTYTDSVKGRFTISRDNAKNEAFLQMNSLKPEDTAVYYCHAAARDSHGIYLLDTWGQGTQVTVSS,binding result,[8],no binding (tested: 40 nM)
same,End 1st inj (RU),[9],11.6 RU
NRCoV2-12 VHH-Fc (Fc fusion) EVQLQQSGGGLVQAGGSLRLSCAASGRTFRNYVMGWFRQAPQAPGKDHEFVAAISWGGTEIYYADSVKGRFTISRDNAKNTVYLQMNSLKPEDTAVYYCAADRGLSYYYTRTTEYNYWGQGTQVTVSS,Kd,RBD (aa319-541) (Wuhan) [10],0.047 nM
same,binding result,[11],no binding (tested: 13 nM)
same,binding result,[12],no binding (tested: 13 nM)
same,Bmax,[13],21800
same,EC50,[13],0.8 nM
same,Kd,RBD_SARS-CoV (aa306-527),2.69 nM
same,koff,RBD_SARS-CoV (aa306-527),0.00101 s⁻¹
same,kon,RBD_SARS-CoV (aa306-527),376000 M⁻¹ s⁻¹
same,Kd,RBD (aa319-541) (Wuhan) [14],0.0469 nM
same,koff,RBD (aa319-541) (Wuhan) [14],3.5e-05 s⁻¹
same,kon,RBD (aa319-541) (Wuhan) [14],747000 M⁻¹ s⁻¹
"NRCoV2-12 VHH-Fc (Fc fusion, bivalent) EVQLQQSGGGLVQAGGSLRLSCAASGRTFRNYVMGWFRQAPQAPGKDHEFVAAISWGGTEIYYADSVKGRFTISRDNAKNTVYLQMNSLKPEDTAVYYCAADRGLSYYYTRTTEYNYWGQGTQVTVSS",Kd,[15],0.0486 nM
same,koff,[15],3.69e-05 s⁻¹
same,kon,[15],760000 M⁻¹ s⁻¹
same,binding result,[16],no binding
NRCoV2-17 VHH (VHH) VHH: EVQLQQSGGGLVQTGGSLRLSCAAAGSPFSQLAMSWYRQISGKERAWVASISPTGNRSYSKIAKGRFTISRDNAKNTVTLQMTSLKPEDTAAYICQAANVNGGDYWGQGTQVTVSS,binding result,[17],no binding
same,Kd,[4],0.153 nM
same,koff,[4],9.66e-05 s⁻¹
same,kon,[4],629000 M⁻¹ s⁻¹
same,Kd,[5],0.395 nM
same,koff,[5],0.000224 s⁻¹
same,kon,[5],567000 M⁻¹ s⁻¹
same,Kd,[6],0.149 nM
same,koff,[6],9.79e-05 s⁻¹
same,kon,[6],659000 M⁻¹ s⁻¹
same,IC50,[7],9.4 nM
NRCoV2-07 VHH (VHH) VHH: QVQLVQSGGGLVQPGGSLRLSCAASGVTLDYYAIGWFRQAPGKEREAVSCISSNGRRNHYVASVRGRFTISRDNAKSTVYLQMNSLKPEDTAVYYCAAVQDVHGDNYYCTSPNEYNVWGQGTQVTVSS,End 1st inj (RU),[9],19.1 RU
same,binding result,[18],no binding (tested: 20 nM)
NRCoV2-MRed05 VHH-Fc (Fc fusion) EVQLVESGGGLVQPGGSLRLSCAASGFTLDYYAIGWFRQAPGKEREGVSCISSSDGSTLYADSVKGRFTISRDNAKNTVYLQMNSLKPEDTAVYYCATGPQAYYSGSYYFQCPQAGMDYWGKGTQVTVSS,Kd,RBD (aa319-541) (Wuhan) [10],0.91 nM
same,binding result,[11],no binding (tested: 13 nM)
same,binding result,[12],no binding (tested: 13 nM)
same,Bmax,[13],17300
same,EC50,[13],0.5 nM
same,binding result,SARS-CoV spike (S),no binding (tested: 13 nM)
same,binding result,RBD_SARS-CoV (aa306-527),no binding
same,Kd,RBD (aa319-541) (Wuhan) [14],0.905 nM
same,koff,RBD (aa319-541) (Wuhan) [14],0.000509 s⁻¹
same,kon,RBD (aa319-541) (Wuhan) [14],562000 M⁻¹ s⁻¹
"Human CoV-HKU1 S (other, Sino Biological; 6xHis) AVIGDFNCTNSFINDYNKTIPRISEDVVDVSLGLGTYYVLNRVYLNTTLLFTGYFPKSGANFRDLALKGSIYLSTLWYKPPFLSDFNNGIFSKVKNTKLYVNNTLYSEFSTIVIGSVFVNTSYTIVVQPHNGILEITACQYTMCEYPHTVCKSKGSIRNESWHIDSSEPLCLFKKNFTYNVSADWLYFHFYQERGVFYAYYADVGMPTTFLFSLYLGTILSHYYVMPLTCNAISSNTDNETLEYWVTPLSRRQYLLNFDEHGVITNAVDCSSSFLSEIQCKTQSFAPNTGVYDLSGFTVKPVATVYRRIPNLPDCDIDNWLNNVSVPSPLNWERRIFSNCNFNLSTLLRLVHVDSFSCNNLDKSKIFGSCFNSITVDKFAIPNRRRDDLQLGSSGFLQSSNYKIDISSSSCQLYYSLPLVNVTINNFNPSSWNRRYGFGSFNLSSYDVVYSDHCFSVNSDFCPCADPSVVNSCAKSKPPSAICPAGTKYRHCDLDTTLYVKNWCRCSCLPDPISTYSPNTCPQKKVVVGIGEHCPGLGINEEKCGTQLNHSSCFCSPDAFLGWSFDSCISNNRCNIFSNFIFNGINSGTTCSNDLLYSNTEISTGVCVNYDLYGITGQGIFKEVSAAYYNNWQNLLYDSNGNIIGFKDFLTNKTYTILPCYSGRVSAAFYQNSSSPALLYRNLKCSYVLNNISFISQPFYFDSYLGCVLNAVNLTSYSVSSCDLRMGSGFCIDYALPSSRRKRRGISSPYRFVTFEPFNVSFVNDSVETVGGLFEIQIPTNFTIAGHEEFIQTSSPKVTIDCSAFVCSNYAACHDLLSEYGTFCDNINSILNEVNDLLDITQLQVANALMQGVTLSSNLNTNLHSDVDNIDFKSLLGCLGSQCGSSSRSLLEDLLFNKVKLSDVGFVEAYNNCTGGSEIRDLLCVQSFNGIKVLPPILSETQISGYTTAATVAAMFPPWSAAAGVPFSLNVQYRINGLGVTMDVLNKNQKLIANAFNKALLSIQNGFTATNSALAKIQSVVNANAQALNSLLQQLFNKFGAISSSLQEILSRLDNLEAQVQIDRLINGRLTALNAYVSQQLSDITLIKAGASRAIEKVNECVKSQSPRINFCGNGNHILSLVQNAPYGLLFIHFSYKPTSFKTVLVSPGLCLSGDRGIAPKQGYFIKQNDSWMFTGSSYYYPEPISDKNVVFMNSCSVNFTKAPFIYLNNSIPNLSDFEAELSLWFKNHTSIAPNLTFNSHINATFLDLYYEMNVIQESIKSLNSSFINLKEIGTYEMYVKWP",binding result,[19],no binding (tested: 13 nM)
